# Experimental data from patent US20090325867A1, “RECEPTOR-SPECIFIC TUMOUR NECROSIS FACTOR-RELATED APOPTOSIS-INDUCING LIGAND (TRAIL) VARIANTS” (MEDICAL RESEARCH COUNCIL, priority 2005, published 2009).
# Columns and labels:
# [1] = molecular target: TRAIL receptor 1 (TRAIL-R1) (Homo sapiens (Human)) (UniProt O00220)
# [2] = molecular target: TRAIL receptor 1 (TRAIL-R1) (Homo sapiens (Human)) (UniProt O00220); remark: listed apart in the source
# primary MCL cells = assay: Apoptosis in freshly isolated primary MCL cells with or without depsipeptide pre-treatment; format: cell-based, human; details: spontaneous apoptosis 23.4±2.9%
# Method: Cell lines were also pre-incubated for 30 min with a TRAIL-R1 blocking Ab and a TRAIL-R2 neutralizing Ab from Alexis and R&D systems, respectively, prior to exposure to TRAIL. Freshly isolated cells from patients with MCL were isolated, purified and incubated with different forms of TRAIL as described above for CLL cells. Samples were either analyzed immediately for apoptosis or stored at −80° C. for subsequent Western blotting. Other methods and reagents were as described (Inoue (2004 Cell Death Differ 11 Suppl 2, S193-206); MacFarlane et al., 2005 ibid).
# (§1) Apoptosis was quantified by phosphatidylserine (PS) externalization in the presence of propidium iodide as described (MacFarlane et al., 2002 ibid.). Samples for Western blot analysis were prepared and caspase processing detected as described (Inoue et al., 2004 ibid.; MacFarlane et al., 2005 ibid.).
# We also obtained three samples from patients with mantle cell lymphoma (MCL), an incurable and aggressive disease that accounts for ˜6% of all non-Hodgkin's lymphoma. There are no standard treatments for MCL and the prognosis is very poor particularly for the blastoid variant. MCL cells were isolated and exposed to the different forms of TRAIL after pre-treatment for 16 h with depsipeptide (5 nM).
# Ramos cells [3] = assay: Apoptosis by phosphatidylserine (PS) externalization in Ramos cells; format: cell-based; details: for % PS+ cells, Ramos: 4 h exposure, 500 ng ml^−, Mean ± SEM of at least three determinations
# Method: (§2) Cells were also exposed to HGS-ETR1 or HGSETR2 (1 μg ml^−1). C: Ramos or Jurkat cells were pre-incubated for 30 min either alone or with TRAIL-R1 blocking Ab or TRAIL-R2 neutralizing Ab (5 μg ml^−1). […] D: Ramos and Jurkat cells were exposed to wt TRAIL or TRAIL mutants as described above and processing of caspase-3 and -8 determined by Western blot analysis. The asterisk indicates a non-specific band. The lower panel of the blot for detection of the caspase-8 p18 subunit was exposed for twice as long as the upper panel. Apoptosis was assessed by phosphatidylserine externalization and results expressed as the Means±SEM of at least 3 separate determinations.
# (§3) Ramos, an Epstein-Barr virus-negative Burkitt's lymphoma cell line, and Jurkat T cells (clone E6-1) were cultured as described (MacFarlane et al (2005 Cell Death and Differentiation vol 12 pages 773-782)). Blood samples were obtained from CLL patients, with patient consent and local ethical committee approval and CLL cells purified as described (MacFarlane et al (2002 Oncogene 21, 6809-6818). Cells were incubated for 16 h with depsipeptide (10 nM), provided by Dr. E. Sausville (NCI, USA). Cells were then cultured for a further 6 h with either HGSETR1 or HGS-ETR2, agonistic mAbs to TRAIL-R1 or -R2, respectively (Human Genome Sciences, Rockville, Md.), His-TRAIL-LE (a recombinant TRAIL with low endotoxin—Alexis Corporation, Nottingham, UK), His-TRAIL, a similar form of human recombinant TRAIL (MacFarlane et al (1997 J Biol Chem 272, 25417-25420)) but not further purified to reduce endotoxin levels or a mutant form of His-TRAIL as described (MacFarlane et al., 2005 ibid.). Cell lines were also pre-incubated for 30 min with a TRAIL-R1 blocking Ab and a TRAIL-R2 neutralizing Ab from Alexis and R&D systems, respectively, prior to exposure to TRAIL. Freshly isolated cells from patients with MCL were isolated, purified and incubated with different forms of TRAIL as described above for CLL cells. Samples were either analyzed immediately for apoptosis or stored at −80° C. for subsequent Western blotting. Other methods and reagents were as described (Inoue (2004 Cell Death Differ 11 Suppl 2, S193-206); MacFarlane et al., 2005 ibid).
# as §1
# Ramos and Jurkat T cells (clone E6-1) were cultured as described (MacFarlane et al, 2005 ibid.). The breast tumour cell line, MCF-7 (clone F43) was cultured as described previously (MacFarlane et al., 2000 J. Cell Biol. 148, 1239-1254). Cells were cultured for either 4 h (Ramos and Jurkat) or 6 h (MCF-7) with His-TRAIL (MacFarlane et al, 1997 J Biol Chem 272, 25417-25420), HGS-ETR1 or HGS-ETR2 (Human Genome Sciences), or a mutant form of His-TRAIL (MacFarlane et al, 2005 ibid.). Samples were analyzed for apoptosis, Western blotting, or TRAIL DISC activation as described (MacFarlane et al, 2005 ibid.; MacFarlane et al. 2002 Oncogene 21, 6809-6818). Mutants of His-TRAIL (residues 95-281) were generated using the Quik-Change site-directed mutagenesis kit (Stratagene, Calif.), confirmed by DNA sequencing, expressed in E. coli and purified as described (MacFarlane et al, 1997 ibid.). For siRNA targeting of TRAIL-R1/-R2, MCF-7 cells were seeded into six-well plates immediately prior to effectene-mediated RNAi transfection with either a negative control siRNA (30 nM, Ambion, #4611), or preannealed siRNA oligonucleotides for TRAIL-R1 or TRAIL-R2 (30 nM, Ambion), with the sequence and validity described (Ren et al, 2004 Mol. Biol. Cell vol 15 pp 5064-5074). After 40 h of transfection the cells were collected and total TRAIL-R1 or TRAIL-R2 levels assessed. […]
# Jurkat cells [4] = assay: Apoptosis by phosphatidylserine (PS) externalization in Jurkat cells; format: cell-based
# Method: as §2, with “determinations. […]” for “determinations.”
# as §1
# Ramos and Jurkat T cells (clone E6-1) were cultured as described (MacFarlane et al, 2005 ibid.). The breast tumour cell line, MCF-7 (clone F43) was cultured as described previously (MacFarlane et al., 2000 J. Cell Biol. 148, 1239-1254). Cells were cultured for either 4 h (Ramos and Jurkat) or 6 h (MCF-7) with His-TRAIL (MacFarlane et al, 1997 J Biol Chem 272, 25417-25420), HGS-ETR1 or HGS-ETR2 (Human Genome Sciences), or a mutant form of His-TRAIL (MacFarlane et al, 2005 ibid.). Samples were analyzed for apoptosis, Western blotting, or TRAIL DISC activation as described (MacFarlane et al, 2005 ibid.; MacFarlane et al. 2002 Oncogene 21, 6809-6818). Mutants of His-TRAIL (residues 95-281) were generated using the Quik-Change site-directed mutagenesis kit (Stratagene, Calif.), confirmed by DNA sequencing, expressed in E. coli and purified as described (MacFarlane et al, 1997 ibid.). For siRNA targeting of TRAIL-R1/-R2, MCF-7 cells were seeded into six-well plates immediately prior to effectene-mediated RNAi transfection with either a negative control siRNA (30 nM, Ambion, #4611), or preannealed siRNA oligonucleotides for TRAIL-R1 or TRAIL-R2 (30 nM, Ambion), with the sequence and validity described (Ren et al, 2004 Mol. Biol. Cell vol 15 pp 5064-5074). After 40 h of transfection the cells were collected and total TRAIL-R1 or TRAIL-R2 levels assessed. Where indicated, RNAi transfected MCF-7 cells were either left untreated or exposed to wt-TRAIL and apoptosis assessed by the extent of Bax activation, determined using the conformation specific Bax MAb, clone 3 (Dewson et al, 2003 Oncogene vol 22 pp 2643-54).
# Ramos cells [5] = assay: Caspase-8 and -3 processing by Western blot in Ramos cells; format: cell-based; details: FIG. 1D
# Method: as §2, §1
# (§4) To confirm that the mutants were inducing apoptosis, we examined their effects on the processing of caspase-8, the apical caspase in death receptor-induced apoptosis and caspase-3, an effector caspase.
# Jurkat cells [6] = assay: Caspase-8 and -3 processing by Western blot in Jurkat cells; format: cell-based; details: FIG. 1D
# Method: as §2, §1, §4
# [7] = test system: TRAIL DISC in Ramos cells; assay: DISC analysis with biotinylated TRAIL in Ramos cells; format: cell-based; details: biotinylated ligand 500 ng ml^−1, 30 min
# Method: (§5) After exposure of the cells for 30 min, DISC complexes were isolated and analyzed for the indicated proteins by Western blotting. To provide an unstimulated receptor control (u/s), biotinylated wt or mutant TRAIL was added to lysate from untreated cells. C: Freshly isolated cells from patients with CLL were incubated for 16 h either alone or in the presence of depsipeptide (10 nM). […] The different symbols used indicate data from six individual patients and the solid line indicates the Mean.
# (§6) Ramos or Jurkat cells (5×10^7 cells per treatment) were exposed to biotin-tagged recombinant His-TRAIL (biotinylated TRAIL) or one of its mutant forms (500 ng ml^−1) for 30 min and then DISC formation assessed as described previously (MacFarlane et al., 2002 ibid.).
# [8] = test system: TRAIL DISC in Jurkat cells; assay: DISC analysis with biotinylated TRAIL in Jurkat cells; format: cell-based; details: biotinylated ligand 500 ng ml^−1, 30 min
# Method: as §5, §6
# primary CLL cells = assay: Apoptosis in freshly isolated CLL cells after depsipeptide; format: cell-based, human; details: depsipeptide 10 nM 16 h, then 6 h ligand or antibody, FIG. 2C
# Method: as §5, §3, §1
# [9] = PS externalization, compared with wt TRAIL
molecule,measurement,setting,value
"His-TRAIL (wild type, residues 95-281) (from UniProt P50591) (ligand)","% PS+ cells (apoptosis by phosphatidylserine externalization), Ramos cells, 4 h, 500 ng/ml",[1],41.8 % PS+ cells
same,apoptosis of primary MCL cells without depsipeptide,[2],25.5%
"C/C=C1\NC(=O)[C@H]2CSSCC/C=C/[C@H](CC(=O)N[C@H](C(C)C)C(=O)N2)OC(=O)[C@H](C(C)C)NC1=O [depsipeptide, reference compound]","apoptosis, depsipeptide alone",primary MCL cells; depsipeptide 5 nM 16 h,35.4±5%
HGS-ETR1 (antibody),"apoptosis of primary MCL cells after depsipeptide (5 nM, 16 h)",[2],68.2%
"TRAIL.R2-6: His-TRAIL (95-281) with 189Gln, 191Lys, 193Arg, 264Arg, 266Leu, 267Gln; TRAIL-R2 selective mutant (protein, biotin (site not stated) in the DISC analysis only; not biotinylated in the apoptosis assays) TSEETISTVQEKQQNISPLVRERGPQRVAAHITGTRGRSNTLSSPNSKNEKALGRKINSWESSRSGHSFLSNLHLRNGELVIHEKGFYYIYSQTQFKFREEIKENTKNDKQMVQYIYKYTSYPDPILLMKSARNSCWSKDAEYGLYSIYQGGIFELKENDRIFVSVTNERLLQMDHEASFFGAFLVG","% PS+ cells, Ramos",Ramos cells [3],9.4 ± 1.6%
same,ability to induce apoptosis in Ramos cells (in words),Ramos cells [3]; [9],not in Ramos cells
same,inhibition of induced apoptosis by TRAIL-R1 blocking Ab,Jurkat cells [4]; 30 min pre-incubation with Ab (5 μg ml^−1),not
same,"% PS+ cells, Jurkat","Jurkat cells [4]; 4 h exposure, 500 ng ml^−, Mean ± SEM of at least three determinations",58.4 ± 11.6%
same,ability to induce apoptosis in Jurkat cells (in words),Jurkat cells [4]; [9],potently induced apoptosis
same,processing of caspase-8 and caspase-3,Ramos cells [5],not
same,processing of caspases-8 and -3,Jurkat cells [6],most potent
same,"DISC formation: receptor bound, FADD and caspase-8 recruitment",[7],failed to recruit FADD or caspase-8 to the DISC
same,"DISC formation: receptor bound, FADD and caspase-8 recruitment",[8],bound TRAIL-R2 extensively in the DISC
same,sensitization of CLL cells to induced apoptosis by depsipeptide,primary CLL cells,lack of activity and not
"wild type: His-tagged human recombinant TRAIL residues 95-281, wild type sequence (protein, biotin (site not stated) in the DISC analysis only; not biotinylated in the apoptosis assays) TSEETISTVQEKQQNISPLVRERGPQRVAAHITGTRGRSNTLSSPNSKNEKALGRKINSWESSRSGHSFLSNLHLRNGELVIHEKGFYYIYSQTYFRFQEEIKENTKNDKQMVQYIYKYTSYPDPILLMKSARNSCWSKDAEYGLYSIYQGGIFELKENDRIFVSVTNEHLIDMDHEASFFGAFLVG","% PS+ cells, Ramos",Ramos cells [3],41.8 ± 5.2%
same,"apoptosis, ligand alone",primary MCL cells; no depsipeptide,25.5±3.8%
same,processing of caspase-8 and caspase-3,Ramos cells [5],induced the processing
same,processing of caspases-8 and -3,Jurkat cells [6],most potent
same,"DISC formation: receptor bound, FADD and caspase-8 recruitment",[7],"bound both TRAIL-R1 and -R2, and recruited FADD and caspase-8"
same,"DISC formation: receptor bound, FADD and caspase-8 recruitment",[8],bound TRAIL-R2 extensively in the DISC
same,sensitization of CLL cells to induced apoptosis by depsipeptide,primary CLL cells,sensitized CLL cells
